Data from patent US20230287046A1, “MOLECULES TARGETING PROTEINS” (AELIN THERAPEUTICS, priority 2020, published 2023).
Where no end group is shown, it is not given here.

Key:
[1] = test system: SW620 human KRAS G12V colorectal cancer xenograft; assay: In vivo SW620 xenograft model; parameters: species or system mouse; conditions: three times per week
Protocol: Female NCr nu/nu mice (8 to 12 weeks) were inoculated with 1×10^6 SW620 tumor cells in 50% Matrigel subcutaneously in the hind flank. The cell Injection Volume was 0.1 mL/mouse. When tumors reached an average size of 100-150 mm^3 a pair match was performed, and treatment started. Group sizes were N=6 for the non-treated group, N=5 for the vehicle groups and N=8 for the pept-in and positive control groups. Tumor growth was monitored by caliper measurement twice per week. Model response was monitored by Irinotecan dosed once per week at 100 mg/kg intraperitoneally for 3 weeks.
To assess whether the RAS-targeting pept-ins are able to attenuate growth of KRAS G12V-driven tumors in vivo, a subcutaneous xenograft model of human KRAS G12V colorectal cancer (SW620) was used. Once the tumors reached 100-150 mm^3 in size, pept-ins were administered directly into the tumor mass by intratumoral injection three times per week during two weeks at two different doses (20 μg and 200 μg).

G12V mutant KRAS = target: T1, G12V mutant KRAS (Homo sapiens, UniProt P01116, G12V); assay: In vitro translation assay with streptavidin pull-down, KRAS G12V; type: binding; conditions: 10 μM biotinylated pept-in, Western blot
T1 construct: made in house; host or cells: cell-free: PURExpress In Vitro Protein Synthesis Kit (New England Biolabs)
Protocol: (§1) In vitro translation assays were performed using the PURExpress® In Vitro Protein Synthesis Kit (New England Biolabs) according to the manufacturer's instructions. Briefly, linear DNA fragments containing T7 promotor and terminator sequences flanking the KRAS coding sequence were generated using PCR and purified using the MinElute PCR Purification Kit (Qiagen). 250 ng of linear DNA was subsequently used for the in vitro translation reaction, which was performed for 2 hours at 37° C. with shaking (1000 rpm). Indicated biotinylated pept-ins were mixed in the translation reactions from a 5 mM stock solution in 6M Urea to a final concentration of 10 μM. Upon completion of the translation reaction, biotinylated pept-ins were captured from the reaction mix using Streptavidin coated beads (Pierce) during 90 min at room temperature. Beads were next washed with TBS containing 0.1% Tween 20 and bound proteins were finally boiled off in 1×SDS loading dye (Bio-Rad) in TBS buffer. Proteins were resolved using Any kD 15-well Mini-PROTEAN gels (Bio-Rad) during SDS-PAGE and probed for KRAS after Western blotting using a mouse monoclonal KRAS-specific antibody (SC-30, Santa Cruz Biotechnology), which was detected with an HRP-coupled anti-mouse secondary antibody using chemiluminescence on a Bio-Rad Chemidoc MP imaging instrument.
To mimic this in vitro, we devised an in vitro translation setup producing either wild-type or mutant KRAS (G12V, G12C, G12D or G13D) in the presence of biotinylated RAS-targeting pept-ins. This allowed us to perform a streptavidin pull-down to capture the biotinylated pept-ins from the translation reaction and perform SDS-PAGE and Western blotting to probe the pulled-down fraction for the presence of KRAS. The biotinylated version of pept-in 04-004-N001, i.e. 04-004-N011, which harbours an APR window sequence derived from a wild-type APR, is predicted to target all RAS proteins independently from their mutation status.

G12C mutant KRAS = target: T2, G12C mutant KRAS (Homo sapiens, UniProt P01116, G12C); assay: In vitro translation assay with streptavidin pull-down, KRAS G12C; type: binding; conditions: 10 μM biotinylated pept-in, Western blot
T2 construct: made in house; host or cells: cell-free: PURExpress In Vitro Protein Synthesis Kit (New England Biolabs)
Protocol: as §1, with “instrument. […]” for “instrument.”

[2] = target: T3, KRAS of NCI-H441 lung adenocarcinoma cells (KRAS G12V mutant) (human, UniProt P01116 1-186); assay: cell-based or functional assay
[3] = target: T3, KRAS of NCI-H441 lung adenocarcinoma …; assay: cell-based or functional assay; remark: listed apart in the source

Row | Molecule | pull-down of KRAS G12V (G12V mutant KRAS) | IC50 on viability of adherently growing NCI-H441 cells (CellTiter Glo, 3 days) [2] | Normalized viability NCI-H441 4 days of exposure to 25 µM (%) [3] | also measured
1 | CC(=O)N[C@@H](CCCCN)C(=O)N[C@H](C(=O)N[C@H](C(=O)N[C@H](C(=O)NCC(=O)N[C@@H](C)C(=O)N[C@H](C(=O)NCC(=O)N[C@@H](CCCCN)C(=O)NCC(=O)N[C@@H](CO)C(=O)N[C@@H](CCCCN)C(=O)N[C@H](C(=O)N[C@H](C(=O)N[C@H](C(=O)NCC(=O)N[C@@H](C)C(=O)N[C@H](C(=O)NCC(=O)N[C@@H](CCCCN)C(N)=O)C(C)C)C(C)C)C(C)C)C(C)C)C(C)C)C(C)C)C(C)C)C(C)C [04-015-N001] | – | – | – | reduction in average tumor volume at day 22 ([1]; 20 μg intratumoral): significant reduction in average tumor volume; reduction in average tumor volume at day 22 ([1]; 200 μg intratumoral): significant reduction in average tumor volume
2 | Ac-KLSVFAIKGSKLSVFAIK-NH2 [04-004-N001] | – | – | – | reduction in average tumor volume at day 22 ([1]; 20 μg intratumoral): only significant for the 200 μg dosing group; reduction in average tumor volume at day 22 ([1]; 200 μg intratumoral): only significant for the 200 μg dosing group
3 | 04-033-N003: biotinylated version of a biologically active pept-in harbouring an APR window containing the G12V mutant site (04-033 series) (KVVVGAVGVGKGSKVVVGAVGVGK; also: biotinylated version) | notable pull-down was only observed for the G12V mutant KRAS | – | – | –
4 | 04-015-N026: biotinylated version of a biologically active pept-in harbouring an APR window containing the G12V mutant site (04-015 series) (KVVVGAVGKGSKVVVGAVGK; also: biotinylated version) | notable pull-down | – | – | pull-down of KRAS G12C (G12C mutant KRAS): notable pull-down
5 | 04-006-N007: biotinylated version of a biologically active pept-in harbouring an APR window containing the G12V mutant site (04-006 series) (KVVVGAVKGSKVVVGAVK; also: biotinylated version) | notable pull-down was only observed for the G12V mutant KRAS | – | – | –
6 | Ac-KVVVGAVGVGKGSKVVVGAVGVGK-NH2 [04-033-N001] | – | ~10 µM | 5.2% | –
7 | Ac-KVVVGAVGKGSKVVVGAVGK-NH2 [04-015-N001] | – | ~10 µM | 23.3% | –
8 | Ac-KVVVGAVKGSKVVVGAVK-NH2 [04-006-N001] | – | ~10 µM | 8.7% | –
9 | Ac-KLVVVGAVKGSKLVVVGAVK-NH2 [04-014-N001] | – | ~10 µM | 9.1% | –
10 | Ac-KLSVFAIKGSKLSVFAIK-NH2 [04-004-N001] | – | ~10 µM | 6.1% | –
